Measurements taken from publication PMC4743672.

Target: HLCS-NLuc (Myc-HLCS fused to the N-terminal fragment of firefly luciferase) (human) (UniProt P50747)
Test: split reporter

UniProt P50747, sequence (P50747 whole entry, the tested form may be a part): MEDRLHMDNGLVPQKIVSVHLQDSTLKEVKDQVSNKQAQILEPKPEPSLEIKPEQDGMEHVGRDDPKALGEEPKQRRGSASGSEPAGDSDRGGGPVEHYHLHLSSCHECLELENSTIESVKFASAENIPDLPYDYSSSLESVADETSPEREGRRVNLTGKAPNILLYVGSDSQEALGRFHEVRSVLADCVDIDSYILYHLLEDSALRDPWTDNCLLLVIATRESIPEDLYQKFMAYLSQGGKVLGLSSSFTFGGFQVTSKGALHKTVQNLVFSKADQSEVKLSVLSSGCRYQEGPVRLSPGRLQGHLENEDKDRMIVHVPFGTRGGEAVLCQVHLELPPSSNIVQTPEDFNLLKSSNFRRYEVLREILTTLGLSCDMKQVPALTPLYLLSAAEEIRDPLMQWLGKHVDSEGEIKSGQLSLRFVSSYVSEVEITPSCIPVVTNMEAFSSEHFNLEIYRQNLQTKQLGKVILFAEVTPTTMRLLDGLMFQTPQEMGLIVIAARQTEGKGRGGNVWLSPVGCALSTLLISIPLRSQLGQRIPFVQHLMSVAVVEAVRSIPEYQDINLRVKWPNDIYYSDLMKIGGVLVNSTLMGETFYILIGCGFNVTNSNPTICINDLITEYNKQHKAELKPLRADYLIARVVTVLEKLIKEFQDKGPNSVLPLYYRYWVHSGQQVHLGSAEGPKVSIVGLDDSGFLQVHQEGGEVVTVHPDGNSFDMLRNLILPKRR

HDAC1Δ31-CLuc (Myc-HDAC1Δ31 fused to the C-terminal fragment of firefly luciferase) (enzyme)
luminescence signal, fold of TP53-NLuc plus CDK3-CLuc (negative control): 2.4 fold | luminescence signal, fold of unfused NLuc plus CLuc (background control): 2.9 fold

N-CoR-CT-CLuc (Myc-N-CoR C-terminal domain fused to the C-terminal fragment of firefly luciferase) (domain or fragment)
luminescence signal, fold of TP53-NLuc plus CDK3-CLuc (negative control): 3.1 fold | luminescence signal, fold of unfused NLuc plus CLuc (background control): 3.7 fold
